Measured values reported in the supplement of paper PMC10065799, “High-throughput profiling of sequence recognition by tyrosine kinases and SH2 domains using bacterial peptide display” (eLife, 2023).

These sequences were tested against EPHB2 (UniProt P29323) (assay: phosphorylation enrichment, bacterial display (enrichment ratio); higher = better substrate or ligand; peptides without Tyr show the background).
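Note: 11-residue human phosphosite peptides and single-mutation variants displayed on the E. coli surface, counted by deep sequencing, each peptide's frequency after selection divided by its frequency in the unselected input library; frequency after pTyr selection over input frequency; kinase dosed for 20-30% of maximal phosphorylation in three min.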

Chain of EPHB2 (P29323 whole entry, looked up): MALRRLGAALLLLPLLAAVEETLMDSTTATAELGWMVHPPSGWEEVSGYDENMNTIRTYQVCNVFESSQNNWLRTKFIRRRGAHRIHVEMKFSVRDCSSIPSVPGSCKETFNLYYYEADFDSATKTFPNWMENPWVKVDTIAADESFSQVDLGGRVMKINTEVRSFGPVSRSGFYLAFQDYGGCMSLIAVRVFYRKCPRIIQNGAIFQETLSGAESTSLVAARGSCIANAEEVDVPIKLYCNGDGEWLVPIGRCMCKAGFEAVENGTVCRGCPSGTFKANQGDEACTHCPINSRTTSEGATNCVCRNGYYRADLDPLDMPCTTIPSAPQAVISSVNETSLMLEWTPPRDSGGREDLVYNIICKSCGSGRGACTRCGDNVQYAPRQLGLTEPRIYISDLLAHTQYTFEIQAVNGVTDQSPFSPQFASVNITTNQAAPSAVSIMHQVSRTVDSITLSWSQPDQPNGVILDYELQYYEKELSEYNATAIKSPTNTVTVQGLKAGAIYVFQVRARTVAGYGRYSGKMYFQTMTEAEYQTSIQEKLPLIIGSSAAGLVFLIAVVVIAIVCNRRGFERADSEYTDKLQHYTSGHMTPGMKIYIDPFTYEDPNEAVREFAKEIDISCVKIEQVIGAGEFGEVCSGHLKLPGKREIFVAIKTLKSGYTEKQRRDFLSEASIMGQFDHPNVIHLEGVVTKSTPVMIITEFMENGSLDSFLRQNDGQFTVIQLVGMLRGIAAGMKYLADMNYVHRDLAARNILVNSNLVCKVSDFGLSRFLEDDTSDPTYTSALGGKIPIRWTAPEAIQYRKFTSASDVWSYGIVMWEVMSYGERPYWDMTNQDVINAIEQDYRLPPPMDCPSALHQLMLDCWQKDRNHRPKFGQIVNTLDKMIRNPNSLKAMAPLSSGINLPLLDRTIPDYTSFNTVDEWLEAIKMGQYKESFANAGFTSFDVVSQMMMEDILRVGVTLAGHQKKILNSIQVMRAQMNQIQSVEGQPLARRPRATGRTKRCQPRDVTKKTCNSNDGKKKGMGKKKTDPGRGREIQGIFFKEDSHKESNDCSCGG

Sequence	phosphorylation enrichment
FKDFFYCWNTS [AICDA_Y146_F151S_YF]	0.61
YKTPTYPYLLP [PLD2_Y578]	0.454
KHVMPYAANKN [GRIN2A_Y1431_E1426K]	0.43
DISEPYKVFRI [IRF8_Y107_YF]	0.529
LNNIIYRLERA [CUX2_Y1470_V1472L]	1.37
MCVKSYTIHYS [F5_Y2153_Y2149C]	0.569
GGPAGYLWRAS [PKLR_Y38_R40W]	0.439
EARRVYGDIIH [ALDH5A1_Y175]	0.378
YLAATYPTVGQ [NF1_Y2508]	0.472
LHNLSYQLEAE [PKP2_Y616]	0.615
NHYKIYNLCAE [PTEN_Y68]	0.442
IIWDSYTTNEM [GNB4_Y85_K89E]	0.795
GRSTYYWPSPR [GAGE12J_Y10_R13S]	11.1
KEELDYLKKNH [KRT14_Y248_A247D]	0.624
IGHHAYGDQYR [IDH1_Y135_R132H]	0.363
QFLMKYVWSAP [ABCD1_Y337_S342P]	0.738
FNDSTYNQQLI [ZPLD1_Y198_YF]	0.483

Sequence	phosphorylation enrichment
AVLSLYASGRT [ACTA1_Y145]	0.571
PSQRCYVFFFS [PTEN_Y174_R173C_YF]	0.735
FFHKFYNKSED [RYR1_Y4864_R4861H]	0.719
PTFENYANSTQ [SLC12A3_Y70_H69N_YF]	0.711
TPGPNYCPGYN [USH2A_Y463_R464C]	0.551
KIITDYYVDMK [MPP4_Y566_V562I]	0.718
SDVSSYLEGQV [GCG_Y110_A115V]	0.534
DVELLYPLKEK [EPHX1_Y283_V285L]	0.438
DKHGQYLIGHG [EPHB4_Y581]	0.376
IDAVCYYRMEN [NPHS2_Y194_I192V]	0.745
TINPIYEHVGF [CHN1_Y143_YF]	23.4
LRFDSYWSFCN [SLC20A2_Y433_S434W_YF]	0.774
RAMPVYKEAEH [TP63_Y231_K233E]	0.67
RYVYYYSYLLK [PTEN_Y178]	1.64
AELVPYYMEHH [PTPN11_Y80_Q79P]	0.635
ADLVQYYMEHH [PTPN11_Y80_E76D]	0.806

The sequences below were run against MERTK (UniProt Q12866) in the same assay as above.
Chain of MERTK (Q12866 whole entry, looked up): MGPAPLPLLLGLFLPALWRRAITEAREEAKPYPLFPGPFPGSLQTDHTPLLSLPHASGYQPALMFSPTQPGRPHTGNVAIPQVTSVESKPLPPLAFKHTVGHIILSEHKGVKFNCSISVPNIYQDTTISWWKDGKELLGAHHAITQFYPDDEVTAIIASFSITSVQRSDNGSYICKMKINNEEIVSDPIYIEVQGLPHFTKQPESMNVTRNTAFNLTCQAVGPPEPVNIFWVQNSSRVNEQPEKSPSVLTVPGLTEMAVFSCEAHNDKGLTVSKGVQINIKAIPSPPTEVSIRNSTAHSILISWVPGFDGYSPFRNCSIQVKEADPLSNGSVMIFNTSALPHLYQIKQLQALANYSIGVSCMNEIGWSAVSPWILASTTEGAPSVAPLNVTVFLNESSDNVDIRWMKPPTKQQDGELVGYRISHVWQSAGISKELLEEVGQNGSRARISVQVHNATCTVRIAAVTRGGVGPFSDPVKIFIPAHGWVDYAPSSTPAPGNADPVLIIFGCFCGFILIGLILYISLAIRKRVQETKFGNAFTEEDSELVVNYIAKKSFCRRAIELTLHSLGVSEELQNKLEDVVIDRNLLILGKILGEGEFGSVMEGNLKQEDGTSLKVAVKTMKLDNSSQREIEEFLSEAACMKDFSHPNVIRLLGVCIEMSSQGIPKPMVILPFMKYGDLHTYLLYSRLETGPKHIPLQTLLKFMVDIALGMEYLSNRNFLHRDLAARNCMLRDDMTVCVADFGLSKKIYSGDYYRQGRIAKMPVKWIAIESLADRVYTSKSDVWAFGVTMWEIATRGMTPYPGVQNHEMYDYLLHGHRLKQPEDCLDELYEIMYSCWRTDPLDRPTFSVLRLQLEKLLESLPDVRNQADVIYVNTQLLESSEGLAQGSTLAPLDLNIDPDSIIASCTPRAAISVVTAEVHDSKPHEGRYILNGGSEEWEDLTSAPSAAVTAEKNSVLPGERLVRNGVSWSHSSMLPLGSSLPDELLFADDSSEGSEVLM

Sequence	phosphorylation enrichment
FKDFFYCWNTS [AICDA_Y146_F151S_YF]	0.836
YKTPTYPYLLP [PLD2_Y578]	0.589
KHVMPYAANKN [GRIN2A_Y1431_E1426K]	0.383
DISEPYKVFRI [IRF8_Y107_YF]	0.582
LNNIIYRLERA [CUX2_Y1470_V1472L]	1.1
MCVKSYTIHYS [F5_Y2153_Y2149C]	0.459
GGPAGYLWRAS [PKLR_Y38_R40W]	0.392
EARRVYGDIIH [ALDH5A1_Y175]	0.408
YLAATYPTVGQ [NF1_Y2508]	0.73
LHNLSYQLEAE [PKP2_Y616]	0.517
NHYKIYNLCAE [PTEN_Y68]	0.407
IIWDSYTTNEM [GNB4_Y85_K89E]	0.411
GRSTYYWPSPR [GAGE12J_Y10_R13S]	17
KEELDYLKKNH [KRT14_Y248_A247D]	0.419
IGHHAYGDQYR [IDH1_Y135_R132H]	0.421
QFLMKYVWSAP [ABCD1_Y337_S342P]	0.61
FNDSTYNQQLI [ZPLD1_Y198_YF]	0.431

Sequence	phosphorylation enrichment
AVLSLYASGRT [ACTA1_Y145]	0.413
PSQRCYVFFFS [PTEN_Y174_R173C_YF]	0.646
FFHKFYNKSED [RYR1_Y4864_R4861H]	0.761
PTFENYANSTQ [SLC12A3_Y70_H69N_YF]	0.572
TPGPNYCPGYN [USH2A_Y463_R464C]	0.379
KIITDYYVDMK [MPP4_Y566_V562I]	0.547
SDVSSYLEGQV [GCG_Y110_A115V]	0.478
DVELLYPLKEK [EPHX1_Y283_V285L]	0.426
DKHGQYLIGHG [EPHB4_Y581]	0.378
IDAVCYYRMEN [NPHS2_Y194_I192V]	0.845
TINPIYEHVGF [CHN1_Y143_YF]	11.7
LRFDSYWSFCN [SLC20A2_Y433_S434W_YF]	0.572
RAMPVYKEAEH [TP63_Y231_K233E]	0.503
RYVYYYSYLLK [PTEN_Y178]	5.99
AELVPYYMEHH [PTPN11_Y80_Q79P]	0.552
ADLVQYYMEHH [PTPN11_Y80_E76D]	0.642

The sequences below were run against FGFR3 (UniProt P22607) in the same assay as above.
Chain of FGFR3 (P22607 whole entry, looked up): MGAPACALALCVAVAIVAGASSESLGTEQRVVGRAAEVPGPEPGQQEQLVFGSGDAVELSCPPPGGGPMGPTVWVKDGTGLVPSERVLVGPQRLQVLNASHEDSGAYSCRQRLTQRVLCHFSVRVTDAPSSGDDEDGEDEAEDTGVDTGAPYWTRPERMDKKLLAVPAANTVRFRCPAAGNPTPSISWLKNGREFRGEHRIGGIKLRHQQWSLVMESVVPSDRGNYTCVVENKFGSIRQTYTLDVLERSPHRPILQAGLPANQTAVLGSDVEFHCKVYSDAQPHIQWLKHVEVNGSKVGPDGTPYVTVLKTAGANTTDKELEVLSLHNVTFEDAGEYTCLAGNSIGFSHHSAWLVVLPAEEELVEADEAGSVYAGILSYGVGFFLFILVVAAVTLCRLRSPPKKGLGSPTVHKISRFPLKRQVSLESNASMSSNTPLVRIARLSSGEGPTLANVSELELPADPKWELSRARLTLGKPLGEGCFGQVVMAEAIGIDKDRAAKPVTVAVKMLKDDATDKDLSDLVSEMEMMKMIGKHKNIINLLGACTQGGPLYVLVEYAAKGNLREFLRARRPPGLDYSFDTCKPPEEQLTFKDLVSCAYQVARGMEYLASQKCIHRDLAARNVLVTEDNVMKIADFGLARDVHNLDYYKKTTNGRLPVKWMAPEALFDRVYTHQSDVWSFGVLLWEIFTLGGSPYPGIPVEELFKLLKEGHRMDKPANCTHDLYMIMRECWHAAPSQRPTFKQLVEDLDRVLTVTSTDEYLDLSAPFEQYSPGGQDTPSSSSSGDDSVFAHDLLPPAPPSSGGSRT

Sequence	phosphorylation enrichment
FKDFFYCWNTS [AICDA_Y146_F151S_YF]	0.939
YKTPTYPYLLP [PLD2_Y578]	0.786
KHVMPYAANKN [GRIN2A_Y1431_E1426K]	0.387
DISEPYKVFRI [IRF8_Y107_YF]	0.618
LNNIIYRLERA [CUX2_Y1470_V1472L]	1.19
MCVKSYTIHYS [F5_Y2153_Y2149C]	0.878
GGPAGYLWRAS [PKLR_Y38_R40W]	0.505
EARRVYGDIIH [ALDH5A1_Y175]	0.447
YLAATYPTVGQ [NF1_Y2508]	0.51
LHNLSYQLEAE [PKP2_Y616]	0.934
NHYKIYNLCAE [PTEN_Y68]	0.77
IIWDSYTTNEM [GNB4_Y85_K89E]	0.903
GRSTYYWPSPR [GAGE12J_Y10_R13S]	5.22
KEELDYLKKNH [KRT14_Y248_A247D]	0.666
IGHHAYGDQYR [IDH1_Y135_R132H]	0.342
QFLMKYVWSAP [ABCD1_Y337_S342P]	1.03
FNDSTYNQQLI [ZPLD1_Y198_YF]	0.555

Sequence	phosphorylation enrichment
AVLSLYASGRT [ACTA1_Y145]	0.699
PSQRCYVFFFS [PTEN_Y174_R173C_YF]	1.35
FFHKFYNKSED [RYR1_Y4864_R4861H]	0.948
PTFENYANSTQ [SLC12A3_Y70_H69N_YF]	0.539
TPGPNYCPGYN [USH2A_Y463_R464C]	0.616
KIITDYYVDMK [MPP4_Y566_V562I]	2.6
SDVSSYLEGQV [GCG_Y110_A115V]	0.735
DVELLYPLKEK [EPHX1_Y283_V285L]	0.751
DKHGQYLIGHG [EPHB4_Y581]	0.576
IDAVCYYRMEN [NPHS2_Y194_I192V]	3.39
TINPIYEHVGF [CHN1_Y143_YF]	0.802
LRFDSYWSFCN [SLC20A2_Y433_S434W_YF]	1.4
RAMPVYKEAEH [TP63_Y231_K233E]	0.663
RYVYYYSYLLK [PTEN_Y178]	3.85
AELVPYYMEHH [PTPN11_Y80_Q79P]	0.792
ADLVQYYMEHH [PTPN11_Y80_E76D]	1.18

Each sequence was assayed against Hck (UniProt P08631) in the same assay as above.
Chain of Hck (P08631 whole entry, looked up): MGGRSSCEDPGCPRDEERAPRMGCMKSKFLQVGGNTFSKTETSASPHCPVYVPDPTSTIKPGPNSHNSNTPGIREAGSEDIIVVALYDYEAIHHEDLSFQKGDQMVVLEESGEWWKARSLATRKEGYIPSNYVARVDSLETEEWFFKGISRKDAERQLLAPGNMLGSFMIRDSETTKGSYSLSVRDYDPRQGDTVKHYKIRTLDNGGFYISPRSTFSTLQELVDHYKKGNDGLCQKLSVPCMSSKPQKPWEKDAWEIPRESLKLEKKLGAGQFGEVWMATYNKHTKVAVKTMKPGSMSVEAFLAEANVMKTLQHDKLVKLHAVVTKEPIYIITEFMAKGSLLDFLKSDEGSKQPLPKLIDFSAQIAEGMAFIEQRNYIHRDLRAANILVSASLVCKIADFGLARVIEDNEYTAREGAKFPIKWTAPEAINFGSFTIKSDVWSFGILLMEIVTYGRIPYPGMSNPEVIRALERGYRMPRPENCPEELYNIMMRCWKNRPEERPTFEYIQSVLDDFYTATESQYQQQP

Sequence	phosphorylation enrichment
FKDFFYCWNTS [AICDA_Y146_F151S_YF]	0.589
YKTPTYPYLLP [PLD2_Y578]	0.481
KHVMPYAANKN [GRIN2A_Y1431_E1426K]	0.332
DISEPYKVFRI [IRF8_Y107_YF]	0.563
LNNIIYRLERA [CUX2_Y1470_V1472L]	1.01
MCVKSYTIHYS [F5_Y2153_Y2149C]	0.552
GGPAGYLWRAS [PKLR_Y38_R40W]	0.371
EARRVYGDIIH [ALDH5A1_Y175]	0.42
YLAATYPTVGQ [NF1_Y2508]	0.454
LHNLSYQLEAE [PKP2_Y616]	0.699
NHYKIYNLCAE [PTEN_Y68]	0.85
IIWDSYTTNEM [GNB4_Y85_K89E]	0.54
GRSTYYWPSPR [GAGE12J_Y10_R13S]	7.41
KEELDYLKKNH [KRT14_Y248_A247D]	0.382
IGHHAYGDQYR [IDH1_Y135_R132H]	0.439
QFLMKYVWSAP [ABCD1_Y337_S342P]	0.674
FNDSTYNQQLI [ZPLD1_Y198_YF]	0.482

Sequence	phosphorylation enrichment
AVLSLYASGRT [ACTA1_Y145]	0.702
PSQRCYVFFFS [PTEN_Y174_R173C_YF]	0.616
FFHKFYNKSED [RYR1_Y4864_R4861H]	0.616
PTFENYANSTQ [SLC12A3_Y70_H69N_YF]	0.766
TPGPNYCPGYN [USH2A_Y463_R464C]	0.466
KIITDYYVDMK [MPP4_Y566_V562I]	0.449
SDVSSYLEGQV [GCG_Y110_A115V]	0.511
DVELLYPLKEK [EPHX1_Y283_V285L]	0.495
DKHGQYLIGHG [EPHB4_Y581]	0.475
IDAVCYYRMEN [NPHS2_Y194_I192V]	0.862
TINPIYEHVGF [CHN1_Y143_YF]	11.6
LRFDSYWSFCN [SLC20A2_Y433_S434W_YF]	2.1
RAMPVYKEAEH [TP63_Y231_K233E]	0.664
RYVYYYSYLLK [PTEN_Y178]	1.99
AELVPYYMEHH [PTPN11_Y80_Q79P]	0.736
ADLVQYYMEHH [PTPN11_Y80_E76D]	0.967
